Test results as given in patent publication CN117624362A.
Blank lines part the entries; values can stand above or below the molecule they belong to.

Target: T1, 人CD20 (human) (UniProt P11836)
T1 sequence (looked up): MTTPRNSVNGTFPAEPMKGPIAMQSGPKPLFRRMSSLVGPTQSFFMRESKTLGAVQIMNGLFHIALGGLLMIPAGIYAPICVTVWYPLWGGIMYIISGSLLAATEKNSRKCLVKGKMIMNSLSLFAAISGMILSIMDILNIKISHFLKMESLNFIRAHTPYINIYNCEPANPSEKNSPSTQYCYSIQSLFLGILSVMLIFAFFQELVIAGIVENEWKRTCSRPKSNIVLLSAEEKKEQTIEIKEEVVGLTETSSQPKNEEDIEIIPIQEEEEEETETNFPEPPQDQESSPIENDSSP
Assay: flow cytometry titration on lysed human blood cells, dilutions 1:100 to 1:96000 of 1 mg/mL antibody, goat anti-mouse IgG-PE detection

亲和力(kd): 195 (1mg/mL)
Molecule: 商品化鼠抗人CD20[2H7]抗体 (Biolegend) (antibody)

亲和力(kd): 190 (1mg/mL)
B1: 鼠抗人CD20[ZXCloneHCD20-07] (antibody, V domains shown)
VH: QVQLQQPGAELVKPGASVKMSCKASGYTFTSYNIHWVKQTPGQGLEWIGAIYPGNGDTSHNQKFKGKATLTADRSSSTAYMQFSSLTSEDSAVYYCARSRRYDGDWSFDVWGAGTTVTVSS
VL: QIVLTQSPAIMSASPGEKVTMTCSASSFITYMHWFQQKSGTSPKRWIYDTSKLASGVPARFSGSGSGTSYSLTISSMEAEDAATYYCQQWNSNPPTFGGGTKLEIKR
